The values that follow come from paper PMC5526978.

This test addresses GCSF-Fc (human granulocyte colony-stimulating factor fused with the IgG1 Fc domain at the C-terminus) (UniProt P09919). The test is described as follows: non-reducing SDS-PAGE; purified GCSF-Fc run under reducing and non-reducing conditions, 10% SDS-PAGE.

The substance “GCSF-Fc (human granulocyte colony-stimulating factor fused with the IgG1 Fc domain at the C-terminus) (from UniProt P09919-2 31-204) (Fc fusion)” displayed a stoichiometry N of 2.
